Assay results: patent publication US20190233493A1 (Sanofi, published 2019)
*1 amine or outer side, *2 acyl side, *3 side chain or, on linkers, in order; H or OH if unused. Primed or numbered codes have the meaning given here. Side-chain parts run from the residue outwards. [ ]: non-standard residue; d: D form. The star is where a group is joined. PEG2DGA = 2-[2-[3-[2-[2-(3-aminopropoxy)ethoxy]ethoxy]propylamino-2-oxo-ethoxy]acetyl; TTDS(3) = O=C(CCC(=O)[*:2])NCCCOCCOCCOCCCN[*:1]; Trp(5-OH) = N[C@@H](Cc1c[nH]c2ccc(O)cc12)C(=O)O; Arg(Me2s) = CN=C(NC)NCCC[C@H](N)C(=O)O; γGlu = O=C(O)[C@H](CCC(=O)[*:2])N[*:1]; Arg(Me) = CNC(=N)NCCC[C@H](N)C(=O)O; Stearoyl = CCCCCCCCCCCCCCCCCC(=O)*; Palmitoyl = CCCCCCCCCCCCCCCC(=O)*; αMeF = C[C@](N)(Cc1ccccc1)C(=O)O; αMeK = C[C@](N)(CCCCN)C(=O)O; Nle = CCCC[C@H](N)C(=O)O; PEG2′ = PEG2 spacer unit; PEG2″ = not defined here; Aib = CC(C)(N)C(=O)O

T1: RXFP1 receptor (UniProt Q9HBX9 1-757, limits assumed)
T1 sequence (looked up): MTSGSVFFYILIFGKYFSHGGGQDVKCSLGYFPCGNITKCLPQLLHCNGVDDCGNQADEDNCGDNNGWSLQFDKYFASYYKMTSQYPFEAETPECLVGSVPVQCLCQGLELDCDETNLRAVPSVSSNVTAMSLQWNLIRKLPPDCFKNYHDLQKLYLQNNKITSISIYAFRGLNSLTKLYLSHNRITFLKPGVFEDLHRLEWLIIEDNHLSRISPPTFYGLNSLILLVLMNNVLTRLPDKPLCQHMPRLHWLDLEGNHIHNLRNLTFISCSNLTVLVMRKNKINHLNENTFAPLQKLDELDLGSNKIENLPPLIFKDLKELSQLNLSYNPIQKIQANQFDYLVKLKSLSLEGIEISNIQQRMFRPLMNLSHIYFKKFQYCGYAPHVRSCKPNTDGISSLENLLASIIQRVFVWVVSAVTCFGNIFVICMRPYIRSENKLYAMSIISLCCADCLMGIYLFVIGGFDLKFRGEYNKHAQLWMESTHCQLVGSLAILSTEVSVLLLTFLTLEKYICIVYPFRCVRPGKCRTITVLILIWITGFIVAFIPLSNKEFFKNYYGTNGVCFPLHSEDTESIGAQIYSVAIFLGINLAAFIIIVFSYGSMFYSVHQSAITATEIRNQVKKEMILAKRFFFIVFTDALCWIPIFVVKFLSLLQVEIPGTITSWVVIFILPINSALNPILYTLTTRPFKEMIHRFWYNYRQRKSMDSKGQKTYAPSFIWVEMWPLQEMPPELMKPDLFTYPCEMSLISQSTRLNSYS

B1: peptide of SEQ ID NO: 145 (peptide)
peptide: Ac-LEGREKVRAK(Ac)I[Aib][Aib]EG[Nle]STFSXRKK(Ac)[PEG2′][PEG2′][PEG2′][PEG2′][γGlu][γGlu][γGlu]K([γGlu-Palmitoyl])-NH2
modifications: not fully specified (some residues); printed as Ac-L-E-G-R-E-K-V-R-A-K(Ac)-I-Aib-Aib-E-G-Nle-S-T-F-S-Mly-R-K-K(Ac)-PEG2-PEG2-PEG2-PEG2-gE-gE-gE-K(gE-Palm)-NH2
B2: peptide of SEQ ID NO: 146 (peptide)
peptide: Ac-LEGREKVRAK(Ac)I[Aib][Aib]EG[Nle]STFS[αMeK]RKK(Ac)[TTDS(3)][TTDS(3)][γGlu][γGlu][γGlu]K([γGlu-Palmitoyl])-NH2
SMILES: CCCCCCCCCCCCCCCC(=O)N[C@@H](CCC(=O)NCCCC[C@H](NC(=O)CC[C@H](NC(=O)CC[C@H](NC(=O)CC[C@H](NC(=O)CCC(=O)NCCCOCCOCCOCCCNC(=O)CCC(=O)NCCCOCCOCCOCCCNC(=O)[C@H](CCCCNC(C)=O)NC(=O)[C@H](CCCCN)NC(=O)[C@H](CCCNC(=N)N)NC(=O)[C@](C)(CCCCN)NC(=O)[C@H](CO)NC(=O)[C@H](Cc1ccccc1)NC(=O)[C@@H](NC(=O)[C@H](CO)NC(=O)[C@H](CCCC)NC(=O)CNC(=O)[C@H](CCC(=O)O)NC(=O)C(C)(C)NC(=O)C(C)(C)NC(=O)[C@@H](NC(=O)[C@H](CCCCNC(C)=O)NC(=O)[C@H](C)NC(=O)[C@H](CCCNC(=N)N)NC(=O)[C@@H](NC(=O)[C@H](CCCCN)NC(=O)[C@H](CCC(=O)O)NC(=O)[C@H](CCCNC(=N)N)NC(=O)CNC(=O)[C@H](CCC(=O)O)NC(=O)[C@H](CC(C)C)NC(C)=O)C(C)C)[C@@H](C)CC)[C@@H](C)O)C(=O)O)C(=O)O)C(=O)O)C(N)=O)C(=O)O
B3: peptide of SEQ ID NO: 148 (peptide)
peptide: Ac-LEGREKVRAK(Ac)I[Aib][Aib]EG[Nle]STWS[Aib][Arg(Me2s)]KK(Ac)K-NH2
modifications: not fully specified (residue 25); printed as Ac-L-E-G-R-E-K-V-R-A-K(Ac)-I-Aib-Aib-E-G-Nle-S-T-W-S-Aib-Rds-K-K(Ac)-K(PEG2-PEG2-PEG2-gE-gE-gE-Stea)-NH2
B4: peptide of SEQ ID NO: 2 (peptide)
peptide: Ac-LEGREKVRAQI[Aib][Aib]EG[Nle]STWS[Aib]RKK([γGlu-Palmitoyl])-NH2
SMILES: CCCCCCCCCCCCCCCC(=O)N[C@@H](CCC(=O)NCCCC[C@H](NC(=O)[C@H](CCCCN)NC(=O)[C@H](CCCNC(=N)N)NC(=O)C(C)(C)NC(=O)[C@H](CO)NC(=O)[C@H](Cc1c[nH]c2ccccc12)NC(=O)[C@@H](NC(=O)[C@H](CO)NC(=O)[C@H](CCCC)NC(=O)CNC(=O)[C@H](CCC(=O)O)NC(=O)C(C)(C)NC(=O)C(C)(C)NC(=O)[C@@H](NC(=O)[C@H](CCC(N)=O)NC(=O)[C@H](C)NC(=O)[C@H](CCCNC(=N)N)NC(=O)[C@@H](NC(=O)[C@H](CCCCN)NC(=O)[C@H](CCC(=O)O)NC(=O)[C@H](CCCNC(=N)N)NC(=O)CNC(=O)[C@H](CCC(=O)O)NC(=O)[C@H](CC(C)C)NC(C)=O)C(C)C)[C@@H](C)CC)[C@@H](C)O)C(N)=O)C(=O)O
B5: peptide of SEQ ID NO: 157 (peptide)
peptide: Ac-LEGREKVRAK(Ac)I[Aib][Aib]EG[Nle]STFS[αMeK]RAK(Ac)[TTDS(3)][TTDS(3)][γGlu][γGlu][γGlu]K([γGlu-Palmitoyl])-NH2
SMILES: CCCCCCCCCCCCCCCC(=O)N[C@@H](CCC(=O)NCCCC[C@H](NC(=O)CC[C@H](NC(=O)CC[C@H](NC(=O)CC[C@H](NC(=O)CCC(=O)NCCCOCCOCCOCCCNC(=O)CCC(=O)NCCCOCCOCCOCCCNC(=O)[C@H](CCCCNC(C)=O)NC(=O)[C@H](C)NC(=O)[C@H](CCCNC(=N)N)NC(=O)[C@](C)(CCCCN)NC(=O)[C@H](CO)NC(=O)[C@H](Cc1ccccc1)NC(=O)[C@@H](NC(=O)[C@H](CO)NC(=O)[C@H](CCCC)NC(=O)CNC(=O)[C@H](CCC(=O)O)NC(=O)C(C)(C)NC(=O)C(C)(C)NC(=O)[C@@H](NC(=O)[C@H](CCCCNC(C)=O)NC(=O)[C@H](C)NC(=O)[C@H](CCCNC(=N)N)NC(=O)[C@@H](NC(=O)[C@H](CCCCN)NC(=O)[C@H](CCC(=O)O)NC(=O)[C@H](CCCNC(=N)N)NC(=O)CNC(=O)[C@H](CCC(=O)O)NC(=O)[C@H](CC(C)C)NC(C)=O)C(C)C)[C@@H](C)CC)[C@@H](C)O)C(=O)O)C(=O)O)C(=O)O)C(N)=O)C(=O)O

Biological target: T1, RXFP1 receptor
Test: cell-based or functional assay

Row | Binder | EC50 (nM), OVCAR 5 cells (cAMP) | EMax, OVCAR 5 cells (cAMP)
1 | Ac-LEGREKVRAK(Ac)I[Aib][Aib]EG[Nle]STFS[Aib]RKK(Ac)[PEG2′][PEG2′][PEG2′][PEG2′]K([γGlu-γGlu-γGlu-Palmitoyl])-NH2 [peptide of SEQ ID NO: 144] | 4.1 nM | 94%
2 | B1 | 0.4 nM | 99%
3 | Ac-LEGREKVRAK(Ac)I[Aib][Aib]EG[Nle]STWS[Aib]RKK[PEG2″][PEG2″][PEG2″][PEG2″]K([γGlu-γGlu-γGlu-γGlu-Stearoyl])-NH2 [peptide of SEQ ID NO: 15] | 0.32 nM | 92%
4 | B2 | 0.02 nM | 89%
5 | Ac-LEGREKVRAK(Ac)I[Aib][Aib]EG[Nle]STFS[Aib]RKK(Ac)K([PEG2′-PEG2′-PEG2′-PEG2′-γGlu-γGlu-γGlu-γGlu-Palmitoyl])-NH2 [peptide of SEQ ID NO: 147] | 2.14 nM | 86%
6 | B3 | 0.11 nM | 94%
7 | Ac-LEGREKVRAK(Ac)I[Aib][Aib]EG[Nle]STFS[αMeK]RAK(Ac)[PEG2″][PEG2″][PEG2″][PEG2″][γGlu][γGlu][γGlu]K([γGlu-Palmitoyl])-NH2 [peptide of SEQ ID NO: 149] | 0.11 nM | 87%
8 | Ac-LEGREKVRAK(Ac)I[Aib][Aib]EG[Nle]STFS[αMeK]RAK(Ac)[PEG2″][PEG2″][PEG2″][PEG2″]K([γGlu-γGlu-γGlu-γGlu-Palmitoyl])-NH2 [peptide of SEQ ID NO: 150] | 0.07 nM | 92%
9 | B4 | 24 nM | 100%
10 | Ac-LEGREKVRAK(Ac)I[Aib][Aib]EG[Nle]STFS[αMeK][Arg(Me)]AK(Ac)[PEG2″][PEG2″][PEG2″][PEG2″][γGlu][γGlu][γGlu]K([γGlu-Palmitoyl])-NH2 [peptide of SEQ ID NO: 151] | 0.14 nM | 90%
11 | Ac-LEGREKVRAK(Ac)I[Aib][Aib]EG[Nle]ST[αMeF]S[αMeK]RAK(Ac)[PEG2″][PEG2″][PEG2″][PEG2″][γGlu][γGlu][γGlu]K([γGlu-Palmitoyl])-NH2 [peptide of SEQ ID NO: 152] | 0.04 nM | 91%
12 | Ac-LEGREKVRAK(Ac)I[Aib][Aib]EG[Nle]STFS[Aib]RKK(Ac)K([PEG2′-PEG2′-PEG2′-PEG2′-γGlu-γGlu-γGlu-Palmitoyl])-NH2 [peptide of SEQ ID NO: 153] | 0.26 nM | 89%
13 | Ac-LEGREKVRAK(Ac)I[Aib][Aib]EG[Nle]STFS[αMeK]RAK(Ac)K([PEG2′-PEG2′-PEG2′-PEG2′-γGlu-γGlu-γGlu-γGlu-Palmitoyl])-NH2 [peptide of SEQ ID NO: 154] | 0.4 nM | 92%
14 | Ac-LEGREKVRAK(Ac)I[Aib][Aib]EG[Nle]STWS[Aib]AAK(Ac)K([PEG2′-PEG2′-PEG2′-γGlu-γGlu-γGlu-Stearoyl])-NH2 [peptide of SEQ ID NO: 155] | 1.17 nM | 95%
15 | Ac-LEGREKVRAK(Ac)I[Aib][Aib]EG[Nle]STWS[αMeK]RKK(Ac)[PEG2″][PEG2″][PEG2″]K([γGlu-γGlu-γGlu-γGlu-Stearoyl])-NH2 [peptide of SEQ ID NO: 16] | 0.02 nM | 87%
16 | Ac-LEGREKVRAK(Ac)I[Aib][Aib]EG[Nle]STWS[Aib]AAK(Ac)K([PEG2DGA-PEG2DGA-γGlu-γGlu-γGlu-Stearoyl])-NH2 [peptide of SEQ ID NO: 156] | 0.06 nM | 90%
17 | B5 | 0.02 nM | 89%
18 | Ac-LEGREKVRAK(Ac)I[Aib][Aib]EG[Nle]ST[Trp(5-OH)]S[Aib]RKK(Ac)K([PEG2′-PEG2′-PEG2′-γGlu-γGlu-γGlu-Stearoyl])-NH2 [peptide of SEQ ID NO: 158] | 0.14 nM | 90%
